Data as given in patent US20260242730A1 (POINTLOMA BIOSCIENCES, published 2026).
Changes are numbered by the printed parent chain.

T1: human TROP2 (antigen of panning and clone screening) (human, UniProt P09758 27-274, limits assumed)
T1 construct: also called human TROP2-His protein; TROP2-expressing CHOK1 cells
T1 sequence (looked up): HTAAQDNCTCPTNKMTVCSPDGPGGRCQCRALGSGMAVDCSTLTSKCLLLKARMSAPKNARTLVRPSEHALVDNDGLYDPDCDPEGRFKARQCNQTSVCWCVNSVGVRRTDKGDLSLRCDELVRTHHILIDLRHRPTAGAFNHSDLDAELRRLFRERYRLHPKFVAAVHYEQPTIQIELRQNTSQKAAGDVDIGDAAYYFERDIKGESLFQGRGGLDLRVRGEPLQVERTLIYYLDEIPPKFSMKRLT

B1: anti-TROP2 #TP11 VHH (VHH)
VHH: QVQLVESGGGLVQPGGSLRVSCAASGFRLDYYAIGWFRQAPGKEREGVSSINYSSGSTVYADSVKGRFTISRGNAKNTVYLQMNSLKPEDTAVYYCAVGTVVTSLAPYEYDYWGQGTQVTVSS
B2: anti-TROP2 #TP14 VHH (VHH)
VHH: EVQVVESGGGLVQPGGSLRLSCAVSGFTLDWYAIGWFRQAPGKEHEGVACIDPSERSTYADPVKGRFTISRDNAKNTVHLQMNSLKPEDTAVYYCAADTLPCFFYGSMWPPPDNWGQGTQVTVSS
B3: anti-TROP2 #TP5 VHH (VHH)
VHH: QLQLVESGGGLVQPGGSLKLSCAASGFTLDYWTIGWFRQAPGKEREGVSCISSSDGSTYYADSVKGRFTISRDNAKRTVNLQMNSLKPEDTAVYYCAAGSLGYCSRSTPQYEYDFWGQGTQVTVSS
B4: anti-TROP2 #TP7 VHH (VHH)
VHH: B3 VHH with K19R, T28S, D30E, Y31H, G56A, R77K, T78S, N80Y, P88L, F115Y
B5: anti-TROP2 #TP8 VHH (VHH)
VHH: B3 VHH with K19R, I51V, D55G, S57I, A75E, N80Y, F115Y
B6: anti-TROP2 #TP17 VHH (VHH)
VHH: EVQLVESGGGMVQPGGSLRLSCAFSGLTFSNYAMTWYRQAPGKERELVAGTPSPGGTTTYADSVKGRFTISRDNAEDTVYLQMNSLKPEDTAVYYCHARWMWPSDNAGMGYWGKGTLVTVSS
B7: anti-TROP2 #TP16 VHH (VHH)
VHH: QVQLVESGGGLVQPGGSLRLSCAASGFAFSFYVMTWYRQAPGKQREQVAAITSYGGANYADSVKGRFTISRDNAKNTVYLQMNALTSEDTAVYSCNAHLGPYDYWGQGTQVTVSS
B8: anti-TROP2 #TP18 VHH (VHH)
VHH: QVQLVESGGGLVQPGGSLRLSCAASSSIFSIAIMGWYRQAPGKQRELVATISATDVTHYADSVKGRFTISRDDAWNAVYLQMDSLKAEDTAVYYCNSYLLQQRVPWGQGTQVTVSS
B9: anti-TROP2 #TP19 VHH (VHH)
VHH: B8 VHH with Q1E, L4V, S26R, I28V, S30N, T50S, H58S, A87S
B10: anti-TROP2 #TP15 VHH (VHH)
VHH: QVQLVESGGGLVQPGGSLRLSCAVSGDIFSFYSMGWYRQAPGEQRELVAHITSGGSTHYADSVKGRFTISRDNAKNTVYLQMNSPKPEDTAVYYCNADLDYWVDSMGPYWGQGTQVTVSS
B11: anti-TROP2 #TP12 VHH (VHH)
VHH: QVQLVESGGGLVQPGGSLRLSCAASRFTLDYYAIGWIRQAPGKEREGVSCISSSGGSTNYADSVKGRFTISRDNAKNTVYLQMNSLKPEDTGVYYCAATTYACSGYVPRAYEYDYWGQGTQVTVSS
B12: anti-TROP2 #TP13 VHH (VHH)
VHH: EVQLVESGGGLVQPGGSLRLSCALSGFTKDYYGIGWFRQAPGKEREGVSCISVSGSSTNYADSVKGRFTISRDNAKNTVYLQMNSLKPEDTGVYYCAAAFMGSDYVVPEMSREYDYWGQGTQVTVSS
B13: anti-TROP2 #TP9 VHH (VHH)
VHH: QVQLVESGGGLVQPGGSLRLSCAASGFSLDYWAIAWFRQAPGKEREGVSCSGSRGSTHYADSVKGRFTISRDNAKNTVYLQMNSLKPEDAGVYYCAVGSTLYSLTPYEYDYWGQGTQVTVSS
B14: anti-TROP2 #TP10 VHH (VHH)
VHH: B13 VHH with S28R, Y31H, A35G, R54D, G55E, H58Y, A90T, L101W

target: T1, human TROP2 (antigen of panning and …); assay: positive phage clones from panning on human TROP2-His protein or on TROP2-expressing CHOK1 cells, ELISA
From the text: After confirming successful immunization with TROP2 protein, PBMC was isolated and used for construction of a phage display library with the size of 2.42×10⁹ cfu. TROP2 VHH binders were isolated from the phage display library using solid phase panning on human TROP2-His protein and cell-based panning on the engineered, TROP2-expressing CHOK1 cells in two parallel discovery campaigns. […] Stringency was increased during successive rounds by decreasing antigen concentration, increasing the number and duration of washes, and/or changing the duration of selections. The positively identified phages were diluted and spread on a petri dish to grow single colonies. Individual phage clones were selected and amplified. […] After three rounds of screening on TROP2 CHOK1 cells, a total of 384 clones were selected, of which 163 clones were TROP2-specific as tested by ELISA. After sequencing the positive clones, 9 unique sequences were obtained based on amino acid sequences. In combination, a total of 20 unique sequences were identified.

| binding result | Binder |
| --- | --- |
| binds | B1 |
| binds | B2 |
| binds | B3 |
| binds | B4 |
| binds | B5 |
| binds | B6 |
| binds | B7 |
| binds | B8 |
| binds | B9 |
| binds | B10 |
| binds | B11 |
| binds | B12 |
| binds | B13 |
| binds | B14 |
